Results on three molecules are retold here after US20240392040A1 (AKESO HUIKE SHANGHAI, published 2024).

One test concerns the target T1, human PD-1-mFc (human, UniProt Q15116 25-170, limits assumed).
T1 construct: not shown: mouse IgG Fc (mFc)
Kind of test: indirect ELISA, coated human PD-1-mFc. How it is done:
Then the ELISA plate coated with the antigen was washed once with PBST and then blocked with a PBS solution containing 1% BSA as a blocking solution at 37° C. for 2 h. After blocking, the ELISA plate was washed 3 times with PBST. The ELISA plate containing the test antibodies was incubated at 37° C. for 30 min and then washed 3 times with PBST.
(§1) After incubation, the plate was washed 4 times with PBST, TMB (Neogen, 308177) was added for chromogenesis in the dark for 5 min, and then a stop solution was added to terminate the chromogenic reaction. The ELISA plate was put into an ELISA plate reader immediately, and the OD value of each well in the ELISA plate was read at 450 nm. The data were analyzed and processed by SoftMax Pro 6.2.1.
For orientation: ELISA stands for enzyme-linked immunosorbent assay.

Test [1] has as its target T2, PD-1 on 293T-PD1 membrane surface (full-length human PD-1 on cells) (human, UniProt Q15116 25-288).
T2 construct: whole, on cells; the Promega PD-1 effector cells are bought; also called CHO-K1-PD1 cells
Kind of test: competitive flow cytometry on 293T-PD1 cells, competitor PDL-1-mFc 20 nM. The procedure: 1. […] 100 μL of 1% PBSA was then added to each well, and the mixture was centrifuged and washed. […] 100 μL of a 400-fold diluted FITC goat anti-mouse IgG/IgM antibody (BD, Cat. No. 555988) was added, while 100 μL of 1% PBSA was added for a blank sample. The mixture was mixed well, incubated on ice in the dark for 30 min, washed, and centrifuged. The cells were resuspended and then transferred to a sample loading tube for testing on a flow cytometer.
On the technique in general: A flow cytometer gives signals particle by particle.

In a further test the target is T3, human PD-1-mFc-Biotin (human, UniProt Q15116 25-170, limits assumed, biotin label (site not stated)).
T3 construct: not shown: mouse IgG Fc (mFc)
T3 sequence (Q15116 25-170 limits assumed): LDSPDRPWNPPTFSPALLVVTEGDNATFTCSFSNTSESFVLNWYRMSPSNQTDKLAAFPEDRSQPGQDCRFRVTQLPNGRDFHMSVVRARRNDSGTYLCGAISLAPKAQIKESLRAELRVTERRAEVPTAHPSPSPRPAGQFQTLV
Kind of test: competitive ELISA, blocking of PD-1-mFc-Biotin binding to coated human PDL1-mFc. The procedure:
After incubation, the ELISA plate was blocked with a PBS solution containing 1% BSA at 37° C. for 2 h. After blocking, the plate was washed three times and dried. The antibody was serially diluted on a dilution plate in a 3-fold dilution ratio to achieve 7 concentrations with 80 nM as the starting concentration (at a final concentration of 40 nM), and a blank control was set. […] Then the mixture was incubated at room temperature for 10 min. Then the mixture after reaction was added to the coated ELISA plate, and the ELISA plate was incubated at 37° C. for 30 min. After incubation, the plate was washed three times with PBST and dried. An SA-HRP (KPL, 14-30-00) working solution was added, and the plate was incubated at 37° C. for 30 min. After incubation, the plate was washed four times and dried. Then TMB (Neogen, 308177) was added in the dark for chromogenesis for 5 min, and then a stop solution was added to terminate the chromogenic reaction. The ELISA plate was put into an ELISA plate reader immediately, and the OD value of each well in the ELISA plate was read at 450 nm. The data were analyzed and processed by SoftMax Pro 6.2.1.

Test [2] has as its target T2, PD-1 on 293T-PD1 membrane surface …. Kind of test: flow cytometry on 293T-PD1 cells. How it is done: 100 μL of 1% PBSA was then added to each well, and the mixture was centrifuged at 350×g for 5 min, followed by removal of the supernatant. […] The mixture was mixed gently and uniformly, and then incubated on ice for 1 h. 100 μL of 1% PBSA was added to each well, and the mixture was centrifuged at 350×g for 5 min, followed by removal of the supernatant. Then the plate was washed twice with 200 μL of 1% PBSA. […] The mixture was mixed well and then incubated on ice in the dark for 0.5 h. 100 μL of 1% PBSA was added to each well, and the mixture was centrifuged at 350×g for 5 min, followed by removal of the supernatant. Then the plate was washed twice with 200 μL of 1% PBSA. 400 μL of 1% PBSA was added to each well to resuspend the cell pellets, and the mixture was transferred to a flow cytometry tube for FACSCalibur assay.

The next test has as its target T4, human LAG3-mFc (human, UniProt P18627 23-450, limits assumed).
T4 construct: not shown: mouse IgG Fc (mFc)
T4 sequence (looked up): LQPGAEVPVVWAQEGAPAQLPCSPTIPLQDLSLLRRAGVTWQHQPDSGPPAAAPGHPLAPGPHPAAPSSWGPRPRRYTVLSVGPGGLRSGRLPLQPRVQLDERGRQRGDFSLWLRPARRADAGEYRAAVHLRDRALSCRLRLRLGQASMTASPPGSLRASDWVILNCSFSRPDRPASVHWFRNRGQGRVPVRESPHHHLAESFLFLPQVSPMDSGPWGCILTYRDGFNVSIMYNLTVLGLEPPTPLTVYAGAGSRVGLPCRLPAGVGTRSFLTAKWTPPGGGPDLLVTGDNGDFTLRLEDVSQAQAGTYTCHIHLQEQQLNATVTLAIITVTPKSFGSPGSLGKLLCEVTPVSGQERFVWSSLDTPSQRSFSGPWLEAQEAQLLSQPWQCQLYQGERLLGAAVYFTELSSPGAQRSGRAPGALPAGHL
In words: indirect ELISA, coated human LAG3-mFc. How it is done:
as §1, with “Then the ELISA plate coated with the antigen was washed once with PBST and then blocked with a PBS solution containing 1% BSA as a blocking solution at 37° C. for 2 h. After blocking, the ELISA plate was washed 3 times with PBST. The ELISA plate containing the test antibodies was incubated at 37° C. for 30 min and then washed 3 times with PBST. […] After” for “After”

T1 sequence (Q15116 25-170 limits assumed): as the sequence (Q15116 25-170 limits assumed) above
T2 sequence (Q15116 25-288): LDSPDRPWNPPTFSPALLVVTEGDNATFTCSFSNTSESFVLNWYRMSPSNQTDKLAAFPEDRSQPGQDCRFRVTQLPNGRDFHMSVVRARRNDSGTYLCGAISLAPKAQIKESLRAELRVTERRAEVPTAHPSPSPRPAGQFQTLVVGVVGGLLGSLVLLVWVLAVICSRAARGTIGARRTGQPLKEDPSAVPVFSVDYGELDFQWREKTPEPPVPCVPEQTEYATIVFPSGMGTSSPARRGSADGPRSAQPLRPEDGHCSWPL

B1: 14C12H1L1(hG1TM) (antibody, human IgG1, kappa, V domains shown)
VH: EVQLVESGGGLVQPGGSLRLSCAASGFAFSSYDMSWVRQAPGKGLDWVATISGGGRYTYYPDSVKGRFTISRDNSKNNLYLQMNSLRAEDTALYYCANRYGEAWFAYWGQGTLVTVSS
VL: DIQMTQSPSSMSASVGDRVTFTCRASQDINTYLSWFQQKPGKSPKTLIYRANRLVSGVPSRFSGSGSGQDYTLTISSLQPEDMATYYCLQYDEFPLTFGAGTKLELKR
notes: Humanized anti-PD-1 IgG1 with L234A, L235A, G237A (EU numbering)
Broadly, the EC50 is the concentration needed to bring the measured effect to its halfway point. High values mean lower potency in that assay, low ones higher potency in that assay. On to B1, for which the EC50 with human PD-1-mFc was 0.02 nM; in test [1] it was 2.51 nM; with human PD-1-mFc-Biotin, 2.61 nM; in test [2], 5.35 nM.

B2: BS-PL023C (bispecific antibody, human IgG1, kappa)
heavy: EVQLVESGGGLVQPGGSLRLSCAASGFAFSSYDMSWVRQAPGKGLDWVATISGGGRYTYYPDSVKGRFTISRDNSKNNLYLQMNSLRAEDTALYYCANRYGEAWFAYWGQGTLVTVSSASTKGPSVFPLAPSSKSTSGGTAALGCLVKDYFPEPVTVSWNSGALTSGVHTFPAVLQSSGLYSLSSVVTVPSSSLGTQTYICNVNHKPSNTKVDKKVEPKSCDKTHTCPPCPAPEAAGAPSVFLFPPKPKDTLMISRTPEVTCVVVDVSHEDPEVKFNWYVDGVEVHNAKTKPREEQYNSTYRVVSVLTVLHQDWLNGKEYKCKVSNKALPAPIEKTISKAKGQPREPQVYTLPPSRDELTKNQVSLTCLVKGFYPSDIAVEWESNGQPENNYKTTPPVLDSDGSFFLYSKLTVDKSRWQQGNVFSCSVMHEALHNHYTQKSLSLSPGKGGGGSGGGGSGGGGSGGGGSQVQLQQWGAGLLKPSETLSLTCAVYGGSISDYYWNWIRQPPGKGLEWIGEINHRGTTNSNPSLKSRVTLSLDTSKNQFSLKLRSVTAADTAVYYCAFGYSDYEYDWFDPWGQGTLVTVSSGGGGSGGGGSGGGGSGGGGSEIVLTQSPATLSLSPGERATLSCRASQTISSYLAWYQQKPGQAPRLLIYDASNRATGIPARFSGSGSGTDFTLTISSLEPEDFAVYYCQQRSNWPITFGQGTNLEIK
light: DIQMTQSPSSMSASVGDRVTFTCRASQDINTYLSWFQQKPGKSPKTLIYRANRLVSGVPSRFSGSGSGQDYTLTISSLQPEDMATYYCLQYDEFPLTFGAGTKLELKRTVAAPSVFIFPPSDEQLKSGTASVVCLLNNFYPREAKVQWKVDNALQSGNSQESVTEQDSKDSTYSLSSTLTLSKADYEKHKVYACEVTHQGLSSPVTKSFNRGEC
notes: Morrison form (IgG-scFv): an scFv at the C-terminus of each of the two heavy chains
Consider B2, for which the EC50 with human PD-1-mFc stood at 0.046 nM; in the test with human LAG3-mFc, 0.377 nM; with human PD-1-mFc-Biotin it was 2.98 nM.

B3: Bs-PLV02 (bispecific antibody, human IgG4 S228P, kappa, F234A L235A)
heavy: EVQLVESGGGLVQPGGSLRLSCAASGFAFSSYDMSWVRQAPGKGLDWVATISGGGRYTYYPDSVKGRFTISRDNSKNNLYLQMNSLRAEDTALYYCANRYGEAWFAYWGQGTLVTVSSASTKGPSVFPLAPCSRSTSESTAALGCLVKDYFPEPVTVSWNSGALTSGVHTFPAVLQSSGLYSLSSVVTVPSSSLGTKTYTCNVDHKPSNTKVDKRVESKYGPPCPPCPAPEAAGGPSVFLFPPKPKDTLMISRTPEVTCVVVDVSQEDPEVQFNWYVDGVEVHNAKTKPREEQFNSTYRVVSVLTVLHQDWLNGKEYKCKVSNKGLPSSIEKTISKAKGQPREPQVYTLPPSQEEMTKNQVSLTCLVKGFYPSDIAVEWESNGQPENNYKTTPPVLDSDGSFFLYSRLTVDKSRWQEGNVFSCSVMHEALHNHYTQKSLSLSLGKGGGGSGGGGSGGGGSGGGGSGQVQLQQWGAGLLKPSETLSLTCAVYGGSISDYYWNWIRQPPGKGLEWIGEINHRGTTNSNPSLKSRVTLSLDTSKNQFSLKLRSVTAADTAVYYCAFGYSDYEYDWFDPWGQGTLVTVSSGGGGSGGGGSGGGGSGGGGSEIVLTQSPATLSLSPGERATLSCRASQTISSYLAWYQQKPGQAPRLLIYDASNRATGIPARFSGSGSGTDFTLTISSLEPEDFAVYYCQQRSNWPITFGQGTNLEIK
light: DIQMTQSPSSMSASVGDRVTFTCRASQDINTYLSWFQQKPGKSPKTLIYRANRLVSGVPSRFSGSGSGQDYTLTISSLQPEDMATYYCLQYDEFPLTFGAGTKLELKRTVAAPSVFIFPPSDEQLKSGTASVVCLLNNFYPREAKVQWKVDNALQSGNSQESVTEQDSKDSTYSLSSTLTLSKADYEKHKVYACEVTHQGLSSPVTKSFNRGEC
notes: as for B2
Consider B3, for which the EC50 with human PD-1-mFc is 0.103 nM; with human LAG3-mFc, 0.685 nM; in the test with human PD-1-mFc-Biotin it was 5.04 nM; in test [2], 6.87 nM.
